According to patent US20210238298A1:

Biological target: CD86 mutant 1040 conjugated to an anti-CD40 antibody as part of a bispecific molecule (human)
Assay: inhibition ELISA: CD86 mutant 1040 on an anti-CD40 antibody pre-incubated with the soluble CTLA-4 in a dilution series, mixture added to coated human CTLA-4 (the competitor)

Chain of CD86 mutant 1040 conjugated to an anti-CD40 antibody as part of a bispecific molecule (human) (chain, as listed by the source limits assumed): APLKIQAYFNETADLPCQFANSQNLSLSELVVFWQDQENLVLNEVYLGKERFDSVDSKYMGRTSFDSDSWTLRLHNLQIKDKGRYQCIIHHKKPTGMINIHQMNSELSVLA

Substance	IC50 (read off the curve) [µg/mL]
CTLA4-Fc (Fitzgerald, #30R-CD152) (from UniProt P16410 38-152) (Fc fusion)	1
soluble murine CTLA-4 (R&D systems) (from UniProt P09793 36-162) (receptor)	0.8
